# Experimental data taken from patent publication US12458692B2, “Self-assembling peptide scaffold” (Hexamer Therapeutics, Inc., priority 2018, dated 2025).
# Where no end group is shown, it is not given here.
# Experiment: Blue native PAGE of the peptide hydrated in 1×PBS (self-assembly)
# Type: physicochemical
# Conditions: dissolved in 1×PBS, 5 min at room temperature, Blue NativePAGE Bis-Tris gel
# Method: The peptide (SEQ ID NO: 15) was synthesized by SPPS and lyophilized for storage. The peptide was dissolved in 1×PBS and then loaded onto a blue native PAGE gel and size fractionated by electrophoresis through a 4-16% acrylamide gradient gel for 90 min at 150 V (constant). The gel was fixed in methanol:acetic acid:water and then rinsed in the same solution to destain. Lane 1 is BSA as a reference protein, and Lane 2 is the self-assembled hexamer. MW standards (which are not shown) are on the right. BSA is 66 kDa and the hexamer has an expected size of 20.7 kDa.
# Experiments were performed to confirm that a hexamer forms following hydration of the monomer, elucidate the solubility of epitope coupled hexamers, determine the maximum density of epitope coupling, and confirm that a hexameric structure is maintained following coupling of the epitope. A representative peptide, SEQ ID NO: 15, was synthesized using the protocols previously described. A methionine and aspartic acid residue were placed on the N-terminus, and the methionine residue was protected by acetylation to form Acetyl-MD-(SEQ ID NO: 15). Following SPPS, the peptide was lyophilized for storage. To show self-assembly, the peptide was dissolved in 1×PBS buffer, incubated at room temperature for 5 min, and loaded onto a Blue NativePAGE Novex Bis-Tris Gel using the system purchased from Life Technologies. […]
sequence,measurement,setting,value
"LRSIGKDLRSIGRDLRSIGKDLRSIGRD (Ac-MDLRSIGKDLRSIGRDLRSIGKDLRSIGRD; also: hexamer) [Acetyl-MD-(SEQ ID NO: 15), Representative self-assembling peptide made by SPPS; forms the hexamer on hydration]",higher order structures or aggregates,,no detectable higher order structures or aggregates
same,oligomeric state after hydration (self-assembly),expected hexamer size 20.7 kDa,self-assembly of the hexamer
